Experimental data taken from IntAct's records for PubMed 29039417.

B1: BBSome complex member BBS2 (Homo sapiens), Q9BXC9 (parent)
chain: MLLPVFTLKLRHKISPRMVAIGRYDGTHPCLAAATQTGKVFIHNPHTRNQHVSASRVFQSPLESDVSLLSINQAVSCLTAGVLNPELGYDALLVGTQTNLLAYDVYNNSDLFYREVADGANAIVLGTLGDISSPLAIIGGNCALQGFNHEGSDLFWTVTGDNVNSLALCDFDGDGKKELLVGSEDFDIRVFKEDEIVAEMTETEIVTSLCPMYGSRFGYALSNGTVGVYDKTSRYWRIKSKNHAMSIHAFDLNSDGVNELITGWSNGKVDARSDRTGEVIFKDNFSSAIAGVVEGDYRMDGHIQLICCSVDGEIRGYLPGTAEMRGNLMDTSAEQDLIRELSQKKQNLLLELRNYEENAKAELASPLNEADGHRGIIPANTRLHTTLSVSLGNETQTAHTELRISTSNDTIIRAVLIFAEGIFTGESHVVHPSIHNLSSSICIPIVPPKDVPVDLHLKAFVGYRSSTQFHVFESTRQLPRFSMYALTSLDPASEPISYVNFTIAERAQRVVVWLGQNFLLPEDTHIQNAPFQVCFTSLRNGGHLHIKIKLSGEITINTDDIDLAGDIIQSMASFFAIEDLQVEADFPVYFEELRKVLVKVDEYHSVHQKLSADMADHSNLIRSLLVGAEDARLMRDMKTMKSRYMELYDLNRDLLNGYKIRCNNHTELLGNLKAVNQAIQRAGRLRVGKPKNQVITACRDAIRSNNINTLFKIMRVGTASS
partner: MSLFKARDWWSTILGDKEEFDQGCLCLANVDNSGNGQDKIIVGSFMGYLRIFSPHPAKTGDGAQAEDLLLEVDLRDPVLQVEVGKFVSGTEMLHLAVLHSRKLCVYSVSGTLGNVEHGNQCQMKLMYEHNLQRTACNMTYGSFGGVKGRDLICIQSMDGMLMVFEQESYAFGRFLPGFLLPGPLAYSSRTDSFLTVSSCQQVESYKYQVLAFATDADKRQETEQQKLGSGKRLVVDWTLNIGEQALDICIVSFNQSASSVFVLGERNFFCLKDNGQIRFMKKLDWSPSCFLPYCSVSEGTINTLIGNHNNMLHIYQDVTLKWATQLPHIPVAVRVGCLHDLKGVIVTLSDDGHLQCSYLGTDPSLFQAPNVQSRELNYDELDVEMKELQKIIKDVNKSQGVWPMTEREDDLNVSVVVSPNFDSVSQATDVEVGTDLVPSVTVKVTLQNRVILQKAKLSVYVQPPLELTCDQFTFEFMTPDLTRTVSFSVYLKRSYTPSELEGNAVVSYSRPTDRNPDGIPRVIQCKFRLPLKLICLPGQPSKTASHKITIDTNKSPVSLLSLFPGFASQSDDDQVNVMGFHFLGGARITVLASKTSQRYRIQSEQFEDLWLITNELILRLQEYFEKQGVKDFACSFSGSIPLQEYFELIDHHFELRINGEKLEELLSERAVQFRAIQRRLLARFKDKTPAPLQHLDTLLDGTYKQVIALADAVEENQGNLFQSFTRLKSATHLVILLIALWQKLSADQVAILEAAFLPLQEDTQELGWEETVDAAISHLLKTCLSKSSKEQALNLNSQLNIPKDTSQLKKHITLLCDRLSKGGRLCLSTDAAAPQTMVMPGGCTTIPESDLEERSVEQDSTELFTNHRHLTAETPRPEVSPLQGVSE

Variants of: B1
Conditions: with pthb1_human BBS9, Q3SYG4

| Variant | effect of a mutation on the interaction |
| --- | --- |
| A370E | with no effect |
| A370K | with no effect |
| D371A | with no effect |
| D371E | with no effect |
| D371K | with no effect |
| D371V | disrupting interaction strength |
| G372A | with no effect |
| G372E | with no effect |
| G372K | with no effect |
| H373A | with no effect |
| H373E | with no effect |
| H373K | with no effect |
| R374A | with no effect |
| R374E | with no effect |
| R374K | with no effect |
| R374W | disrupting interaction strength |
| G375A | with no effect |
| G375E | disrupting interaction strength |
| G375K | with no effect |
| I376A | with no effect |
| I376E | with no effect |
| I376K | with no effect |
| I376V | disrupting interaction strength |
| I377A | with no effect |
| I377E | with no effect |

| Variant | effect of a mutation on the interaction |
| --- | --- |
| I377K | with no effect |
| I377R | disrupting interaction strength |
| I377T | disrupting interaction strength |
| P378A | with no effect |
| P378E | with no effect |
| P378K | with no effect |
| A379E | with no effect |
| A379K | with no effect |
| N380A | disrupting interaction strength |
| N380E | disrupting interaction strength |
| N380K | with no effect |
| T381A | with no effect |
| T381E | with no effect |
| T381K | with no effect |
| R382A | disrupting interaction strength |
| R382E | disrupting interaction strength |
| R382K | with no effect |
| L383A | with no effect |
| L383E | with no effect |
| L383K | with no effect |
| H384A | with no effect |
| H384E | with no effect |
| H384K | with no effect |
| T385A | disrupting interaction strength |
| T385E | with no effect |

| Variant | effect of a mutation on the interaction |
| --- | --- |
| T385K | with no effect |
| T386A | with no effect |
| T386E | with no effect |
| T386K | with no effect |
| L387A | with no effect |
| L387E | with no effect |
| L387K | disrupting interaction strength |
| S388A | with no effect |
| S388E | with no effect |
| S388K | with no effect |
| S388P | disrupting interaction strength |
| V389A | with no effect |
| V389E | disrupting interaction strength |
| V389K | disrupting interaction strength |
| V389S | disrupting interaction strength |
| S390A | with no effect |
| S390E | disrupting interaction strength |
| S390G | disrupting interaction strength |
| S390K | with no effect |
| L391A | with no effect |
| L391E | with no effect |
| L391K | with no effect |
| G392A | with no effect |
| G392E | with no effect |
| G392K | with no effect |

| Variant | effect of a mutation on the interaction |
| --- | --- |
| N393A | with no effect |
| N393E | with no effect |
| N393K | with no effect |
| E394A | with no effect |
| E394K | with no effect |
| T395A | with no effect |
| T395E | with no effect |
| T395K | with no effect |
| Q396A | with no effect |
| Q396E | with no effect |
| Q396K | with no effect |
| T397A | with no effect |
| T397E | with no effect |
| T397K | with no effect |
| A398E | with no effect |
| A398K | with no effect |
| A398V | disrupting interaction strength |
| H399A | with no effect |
| H399E | with no effect |
| H399K | with no effect |
| T400A | with no effect |
| T400E | with no effect |
| T400K | with no effect |
| E401A | with no effect |
| E401K | with no effect |

| Variant | effect of a mutation on the interaction |
| --- | --- |
| L402A | with no effect |
| L402C | disrupting interaction strength |
| L402E | disrupting interaction strength |
| L402K | disrupting interaction strength |
| R403A | with no effect |
| R403E | with no effect |
| R403K | with no effect |
| I404A | with no effect |
| I404E | with no effect |
| I404K | with no effect |
| S405A | with no effect |
| S405E | with no effect |
| S405K | with no effect |
| S405P | disrupting interaction strength |
| T406A | with no effect |
| T406E | with no effect |
| T406K | with no effect |
| S407A | with no effect |
| S407E | with no effect |
| S407F | disrupting interaction strength |
| S407K | with no effect |
| N408A | disrupting interaction strength |
| N408E | with no effect |
| N408K | with no effect |
| D409A | with no effect |

| Variant | effect of a mutation on the interaction |
| --- | --- |
| D409E | with no effect |
| D409K | with no effect |
| T410A | with no effect |
| T410E | with no effect |
| T410K | with no effect |
| I411A | with no effect |
| I411E | with no effect |
| I411K | with no effect |
| I412A | with no effect |
| I412E | with no effect |
| I412K | with no effect |
| I412R | disrupting interaction strength |
| R413A | with no effect |
| R413E | with no effect |
| R413K | disrupting interaction strength |
| A414E | with no effect |
| A414K | with no effect |
| A414V | disrupting interaction strength |
| V415A | with no effect |
| V415E | with no effect |
| V415K | with no effect |
| L416A | with no effect |
| L416E | with no effect |
| L416K | with no effect |
| I417A | with no effect |

| Variant | effect of a mutation on the interaction |
| --- | --- |
| I417E | with no effect |
| I417K | with no effect |
| F418A | with no effect |
| F418E | with no effect |
| F418K | with no effect |
| A419E | with no effect |
| A419K | with no effect |
| E420A | with no effect |
| E420K | with no effect |
| G421A | with no effect |
| G421E | with no effect |
| G421K | with no effect |
| I422A | with no effect |
| I422E | with no effect |
| I422K | with no effect |
| F423A | with no effect |
| F423E | with no effect |
| F423K | with no effect |
| T424A | with no effect |
| T424E | with no effect |
| T424K | with no effect |
| G425A | with no effect |
| G425E | with no effect |
